Experimental data reported in paper PMC3666556.
Read-outs that look alike come from different tables or passages of the source. Each block holds one substance with its values, some of them ahead of it.

Legend:
Assay in all cases: cross-linking
[1] = target: K140C-apoA-I (human)
[2] = target: K140C-apoA-I (human); remark: listed apart in the source
[3] = target: G129C-apoA-I (human)
[4] = target: G129C-apoA-I (human); remark: listed apart in the source
[5] = target: K118C-apoA-I (human) (UniProt P02647)
[6] = target: K118C-apoA-I (human) (UniProt P02647); remark: listed apart in the source

- percent homodimer [1]: 65%
- percent homodimer [2]: 41%
Substance: K140C-apoA-I (natural protein)

- percent homodimer [3]: 38%
- percent homodimer [4]: 22%
Substance: G129C-apoA-I (natural protein)

- percent homodimer [5]: 17%
- percent homodimer [6]: 4%
Substance: K118C-apoA-I (from UniProt P02647 19-267) (natural protein)
